{"source": "the Human Domainome abundance scans (Beltran et al. 2025)", "parents": {"B1": {"name": "Double-stranded RNA-binding protein Staufen homolog 1, residues 183 to 249; numbered along this chain, O95793 (parent)", "chain": "KSEISQVFEIALKRNLPVNFEVARESGPPHMKNFVTKVSVGEFVGEGEGKSKKISKKNAAIAVLEEL"}}, "note": "± gives the uncertainty stated by the source.", "data": [{"variants_of": "B1", "experiment": "abundance fitness (aPCA) (normalised: wild type 0, dead -1); higher = more abundant; growth selection in yeast, the domain comes from the species named", "details": "Homo sapiens", "values": [{"variant": "KSEISQVFEIILKRNLPVNFEVARESGPPHMKNFVTKVSVGEFVGEGEGKSKKISKKNAAIAVLEEL", "note": "[A11I]", "abundance fitness": "-1.08 ± 0.26"}, {"variant": "KSEISQVFEIRLKRNLPVNFEVARESGPPHMKNFVTKVSVGEFVGEGEGKSKKISKKNAAIAVLEEL", "note": "[A11R]", "abundance fitness": "-0.829 ± 0.063"}, {"variant": "KSEISQVFEIELKRNLPVNFEVARESGPPHMKNFVTKVSVGEFVGEGEGKSKKISKKNAAIAVLEEL", "note": "[A11E]", "abundance fitness": "-0.822 ± 0.079"}, {"variant": "KSEISQVFEIALKRNLPVNFEVARESGPPHMKNFVTKVSVGEFVGEGEGKSKKISKKNIAIAVLEEL", "note": "[A59I]", "abundance fitness": "-1.03 ± 0.32"}, {"variant": "KSEISQVFEIALKRNLPVNFEVARESGPPHMKNFVTKVSSGEFVGEGEGKSKKISKKNAAIAVLEEL", "note": "[V40S]", "abundance fitness": "-0.703 ± 0.054"}, {"variant": "KSEISQVFEIALKRNLPVNFEVARESGPPHMKNFVTNVSVGEFVGEGEGKSKKISKKNAAIAVLEEL", "note": "[K37N]", "abundance fitness": "-0.328 ± 0.2"}, {"variant": "KSEISQVFEIALKRNLPVNFEVARESGPPHMKNFVTAVSVGEFVGEGEGKSKKISKKNAAIAVLEEL", "note": "[K37A]", "abundance fitness": "-0.293 ± 0.1"}, {"variant": "GSEISQVFEIALKRNLPVNFEVARESGPPHMKNFVTKVSVGEFVGEGEGKSKKISKKNAAIAVLEEL", "note": "[K1G]", "abundance fitness": "-0.175 ± 0.044"}, {"variant": "KSEISQVFEIALKRNLPVNFEVARESGPPHMKNFVTKVSVGEFVGEGEGKSKKISKKNAAIAVLEEY", "note": "[L67Y]", "abundance fitness": "-0.873 ± 0.24"}, {"variant": "KSEISQVFEIALKRNLPVNFEVARESGPFHMKNFVTKVSVGEFVGEGEGKSKKISKKNAAIAVLEEL", "note": "[P29F]", "abundance fitness": "-0.28 ± 0.082"}, {"variant": "KSEISQVFEIALKRNLPVNFEVARESGPTHMKNFVTKVSVGEFVGEGEGKSKKISKKNAAIAVLEEL", "note": "[P29T]", "abundance fitness": "-0.111 ± 0.045"}, {"variant": "KSEYSQVFEIALKRNLPVNFEVARESGPPHMKNFVTKVSVGEFVGEGEGKSKKISKKNAAIAVLEEL", "note": "[I4Y]", "abundance fitness": "-0.74 ± 0.092"}, {"variant": "KSEISQVFEIALKRNLPVNFEVARESGPPHMKNFVTKVSVGEHVGEGEGKSKKISKKNAAIAVLEEL", "note": "[F43H]", "abundance fitness": "0.014 ± 0.099"}, {"variant": "KSEISSVFEIALKRNLPVNFEVARESGPPHMKNFVTKVSVGEFVGEGEGKSKKISKKNAAIAVLEEL", "note": "[Q6S]", "abundance fitness": "-0.255 ± 0.026"}, {"variant": "KSEISRVFEIALKRNLPVNFEVARESGPPHMKNFVTKVSVGEFVGEGEGKSKKISKKNAAIAVLEEL", "note": "[Q6R]", "abundance fitness": "-0.097 ± 0.026"}, {"variant": "KSEISQVFEIALKRNLPVNFEVARESGPPHMKNFVTKVSVGEFVGEGEGKSKKISKKNAAIAVLHEL", "note": "[E65H]", "abundance fitness": "-0.051 ± 0.1"}, {"variant": "KSEISQVFEIALKRNLPVNFEVAEESGPPHMKNFVTKVSVGEFVGEGEGKSKKISKKNAAIAVLEEL", "note": "[R24E]", "abundance fitness": "-0.031 ± 0.044"}, {"variant": "KSEISQVFEIALKRNLPVNFEVAPESGPPHMKNFVTKVSVGEFVGEGEGKSKKISKKNAAIAVLEEL", "note": "[R24P]", "abundance fitness": "-0.035 ± 0.051"}, {"variant": "KSEISQVFEIALKRNLPVNFEVASESGPPHMKNFVTKVSVGEFVGEGEGKSKKISKKNAAIAVLEEL", "note": "[R24S]", "abundance fitness": "-0.065 ± 0.039"}, {"variant": "KSEISQVFEIALKRNLPVNFEVARESGPPHMKNHVTKVSVGEFVGEGEGKSKKISKKNAAIAVLEEL", "note": "[F34H]", "abundance fitness": "-0.544 ± 0.081"}, {"variant": "KSEISQVFEIALKRNLPVNFEVARESGPPHMKNDVTKVSVGEFVGEGEGKSKKISKKNAAIAVLEEL", "note": "[F34D]", "abundance fitness": "-0.578 ± 0.083"}, {"variant": "KSEISQVFEIALKRNLPVNFEVARESGPPHMKNFVTKVSVMEFVGEGEGKSKKISKKNAAIAVLEEL", "note": "[G41M]", "abundance fitness": "-0.888 ± 0.095"}, {"variant": "KSEISQVFEIALKRNLPVNFEVARESGPPHMKNFVTKVSVHEFVGEGEGKSKKISKKNAAIAVLEEL", "note": "[G41H]", "abundance fitness": "-0.737 ± 0.17"}, {"variant": "KSEISQVFEIALKRNLPVNFEVARESGPPHMKNFVTKVSVREFVGEGEGKSKKISKKNAAIAVLEEL", "note": "[G41R]", "abundance fitness": "-0.941 ± 0.06"}, {"variant": "KSEISQYFEIALKRNLPVNFEVARESGPPHMKNFVTKVSVGEFVGEGEGKSKKISKKNAAIAVLEEL", "note": "[V7Y]", "abundance fitness": "-0.782 ± 0.14"}, {"variant": "KSEISQVFEIALKRNLPVNFEVARESGPPHMKNFVTKVSVGEFVGEGEGKSKKIHKKNAAIAVLEEL", "note": "[S55H]", "abundance fitness": "-0.895 ± 0.11"}, {"variant": "KSEISQVFEIALKRNLPVNFEVARESGPPHMKNFVTKVSVGEFVGEGEGKSKKIFKKNAAIAVLEEL", "note": "[S55F]", "abundance fitness": "-0.915 ± 0.11"}, {"variant": "KSEISQVFEIALKRNLWVNFEVARESGPPHMKNFVTKVSVGEFVGEGEGKSKKISKKNAAIAVLEEL", "note": "[P17W]", "abundance fitness": "-0.56 ± 0.079"}, {"variant": "KSEISQVFEIALKRNLPVNFEVARESGPPHMKNFVTKVEVGEFVGEGEGKSKKISKKNAAIAVLEEL", "note": "[S39E]", "abundance fitness": "-0.146 ± 0.062"}, {"variant": "KSEISQVFEIALKRNLPVNFEVARESGPPHMKNFVTKVCVGEFVGEGEGKSKKISKKNAAIAVLEEL", "note": "[S39C]", "abundance fitness": "-0.064 ± 0.077"}, {"variant": "KSEISQVFEIALKRNLPVNFEVARESGPPHMKNFVTKVSVGEFVGEGEGPSKKISKKNAAIAVLEEL", "note": "[K50P]", "abundance fitness": "0.078 ± 0.066"}, {"variant": "KSEISQVFEIALKRNLPVNFEVARESGPPHMKNFVTKVSVGEFVGEGIGKSKKISKKNAAIAVLEEL", "note": "[E48I]", "abundance fitness": "0.128 ± 0.1"}, {"variant": "KSEISQVFEIALKRNLPVNFEVARESGPPHMKNFVTKVSVGEFVGEGWGKSKKISKKNAAIAVLEEL", "note": "[E48W]", "abundance fitness": "-0.011 ± 0.043"}, {"variant": "KSEISQVFEIALKRNLPVNFEVARESGPPHMKNFVTKVSVGEFVGEGKGKSKKISKKNAAIAVLEEL", "note": "[E48K]", "abundance fitness": "0.089 ± 0.06"}, {"variant": "KSEISQVFEIALKRNLPVNFEVARESGPPHMKNFVTKPSVGEFVGEGEGKSKKISKKNAAIAVLEEL", "note": "[V38P]", "abundance fitness": "-0.67 ± 0.051"}, {"variant": "KSEISQVFEIALKRNLPVNFEVARESGPPHMKNFVTKVSVGEFVGEGEGKLKKISKKNAAIAVLEEL", "note": "[S51L]", "abundance fitness": "-0.797 ± 0.068"}, {"variant": "KSEISQVFEIALKRNLPVNFEVARESGPPHMKNFVTKVSVGEFVGEGEGKRKKISKKNAAIAVLEEL", "note": "[S51R]", "abundance fitness": "-0.244 ± 0.07"}, {"variant": "KSEISQVFEIALKRNLPVNFEVARESGPPHMKNFVTKVSVGEFVGEGEGKHKKISKKNAAIAVLEEL", "note": "[S51H]", "abundance fitness": "-1 ± 0.26"}, {"variant": "KSEISQVFEIALKRNLPVNFEVARESGPPHMKNFVTKVSVGEFVGEGEGKSKKISKKNAAIIVLEEL", "note": "[A62I]", "abundance fitness": "-0.384 ± 0.1"}, {"variant": "KSEISQVFEIALKRNLPVNFEVARESGPPHMKNFVTKVSVGEFVGEGEGKSKKISKKNAAISVLEEL", "note": "[A62S]", "abundance fitness": "-0.112 ± 0.05"}]}]}
